T1: J3 junctional peptide (Plasmodium falciparum (identical to 3D7 …))
T1 construct: also called junctional peptide (J3)
T1 chain: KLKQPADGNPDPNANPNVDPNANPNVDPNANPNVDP


How the values were obtained:
Settings in all cases: both partners purified
[1] = target: T2, SES-2 (single epitope scaffold 2); experiment: SPR
T2 construct: also called SES-2 scaffold; source: FreeStyle 293F cells, transfected, purified (nickel column, Superdex 200 Increase gel filtration)

[2] = target: TES-1 (triple-epitope scaffold 1) (synthetic de novo design (grafts PfCSP …)); experiment: KinExA (kinetic exclusion assay)
J3 junctional peptide = target: T1, J3 junctional peptide; experiment: ELISA; plates coated with peptide at 2 ug/mL in PBS; antibodies diluted fourfold from 10 ug/mL; peroxidase secondary antibody

Binder	Kd [1] [nM]	Kd [2] [nM]	binding result (J3 junctional peptide)
L9 Fab (Fab, V domains shown, source: for crystallization: ExpiCHO cells, purified (HiTrap Protein G HP, size exclusion chromatography)) VH: QVKLVESGGGVVQPGRSLRLSCEASGFIFSTYGMHWVRQAPGKGLEWVAVIWFDGSNIYYADSVKGRFTISRDNSKNTVFMQMDSLRAEDTAVYYCHRNFYDGSGPFDYWGQGTLVTVSS VL: DIQMTQSPSTLSASVGDRVTITCRASQFISRWLAWYQQKPGKAPKLLIYKASSLESGVPSRFSGSGSETHFTLTISSLQPDDVATYYCQEYTSYGRTFGQGTKVEIK	29	–	–
Monoclonal antibody L9 (human IgG) (antibody, V domains shown) VH: QVKLVESGGGVVQPGRSLRLSCEASGFIFSTYGMHWVRQAPGKGLEWVAVIWFDGSNIYYADSVKGRFTISRDNSKNTVFMQMDSLRAEDTAVYYCHRNFYDGSGPFDYWGQGTLVTVSS VL: DIQMTQSPSTLSASVGDRVTITCRASQFISRWLAWYQQKPGKAPKLLIYKASSLESGVPSRFSGSGSETHFTLTISSLQPDDVATYYCQEYTSYGRTFGQGTKVEIK	–	0.085	binds

— article PMC13079917 (Proceedings of the National Academy of Sciences of the …, 2026)
